T1: B. anthracis lethal factor (LF) (Bacillus anthracis, UniProt P15917 34-809)
T1 sequence: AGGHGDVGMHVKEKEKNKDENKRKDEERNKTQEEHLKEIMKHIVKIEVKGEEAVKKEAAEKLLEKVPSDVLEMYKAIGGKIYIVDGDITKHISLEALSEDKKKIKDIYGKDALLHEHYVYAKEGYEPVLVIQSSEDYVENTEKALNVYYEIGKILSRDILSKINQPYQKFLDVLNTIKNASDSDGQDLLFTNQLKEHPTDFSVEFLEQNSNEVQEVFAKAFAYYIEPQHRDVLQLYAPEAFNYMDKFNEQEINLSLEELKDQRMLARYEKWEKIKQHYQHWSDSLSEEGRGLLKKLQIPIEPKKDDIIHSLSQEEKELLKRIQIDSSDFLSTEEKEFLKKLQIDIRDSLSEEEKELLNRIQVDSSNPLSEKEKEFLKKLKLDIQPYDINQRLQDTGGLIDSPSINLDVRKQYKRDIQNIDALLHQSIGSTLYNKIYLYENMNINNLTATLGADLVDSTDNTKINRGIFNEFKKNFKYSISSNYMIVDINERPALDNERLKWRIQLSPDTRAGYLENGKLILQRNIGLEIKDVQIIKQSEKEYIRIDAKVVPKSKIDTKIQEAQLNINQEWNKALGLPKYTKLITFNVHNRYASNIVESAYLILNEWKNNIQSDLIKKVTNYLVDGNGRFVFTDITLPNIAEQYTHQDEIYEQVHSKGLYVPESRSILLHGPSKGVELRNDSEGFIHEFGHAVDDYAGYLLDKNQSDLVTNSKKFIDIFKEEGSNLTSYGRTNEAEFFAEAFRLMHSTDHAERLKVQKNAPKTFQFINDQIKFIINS


Assays:
[1] = molecular target: B. anthracis protective antigen (PA) (Bacillus anthracis, UniProt P13423 30-764); assay: hybridoma screening by ELISA for anti-PA antibodies
Sequence of B. anthracis protective antigen (PA) (P13423 30-764 limits assumed): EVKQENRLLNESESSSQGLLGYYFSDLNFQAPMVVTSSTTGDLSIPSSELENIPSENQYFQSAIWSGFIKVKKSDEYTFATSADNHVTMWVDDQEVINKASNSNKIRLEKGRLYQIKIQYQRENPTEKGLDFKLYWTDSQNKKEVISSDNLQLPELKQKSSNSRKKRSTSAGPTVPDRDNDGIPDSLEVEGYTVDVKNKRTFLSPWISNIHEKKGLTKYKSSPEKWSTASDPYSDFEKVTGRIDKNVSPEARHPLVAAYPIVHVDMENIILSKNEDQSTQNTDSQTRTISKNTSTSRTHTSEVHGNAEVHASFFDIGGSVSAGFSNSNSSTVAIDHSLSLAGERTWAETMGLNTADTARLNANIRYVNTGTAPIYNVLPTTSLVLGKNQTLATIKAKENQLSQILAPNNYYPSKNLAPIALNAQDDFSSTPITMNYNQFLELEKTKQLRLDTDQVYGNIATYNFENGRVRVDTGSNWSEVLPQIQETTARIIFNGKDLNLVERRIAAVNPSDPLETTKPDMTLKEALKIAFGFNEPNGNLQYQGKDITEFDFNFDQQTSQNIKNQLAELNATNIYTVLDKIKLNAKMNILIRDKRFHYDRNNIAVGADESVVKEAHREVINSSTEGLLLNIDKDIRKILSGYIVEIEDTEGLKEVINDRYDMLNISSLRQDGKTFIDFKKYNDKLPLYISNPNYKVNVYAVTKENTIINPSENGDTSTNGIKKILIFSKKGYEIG

[2] = molecular target: T1, B. anthracis lethal factor (LF); assay: hybridoma screening by ELISA for anti-LF antibodies

Binder | binding result [1] | binding result [2]
human monoclonal antibody IQNPA (antibody, V domains shown) VH: QVQLVQSGAEVKKPGASVKVSCKASGYTFTSNAIQWVRQAPGQRLEWVGWINGGDGNTKYSQKFQGRVTISRDISASTAYMELSSLRSEDTAVYYCARHRLQRGGFDPWGQGTLVTVSS VL: EIVLTQSPGTLSLSPGERATLSCRASQSVSYSSLAWYQQKPGQAPSLLIYGASSRATGIPDRFSGSGSGPDFTLTISRLEPEDFAVYYCQHYGNSPYTFGQGTKLEIKR | binds | 
human monoclonal antibody IQNLF (antibody, V domains shown) VH: EVQLLESGGGLVQPGGSLRLSCSGSGFMFSSYAMSWVRQAPGKGLEWVSGISGSGGTTNYADSVKGRFTISRDNSKNTLYMQMNSLRAEDTAVYYCAKDGVYGRLGGSDYWGQGTLVTVSS VL: EIVLTQSPDFQSVSPKEKVTITCRASQSVGSSLHWYQQKPDQSPKLLIKYASQSFSGVPSRFSGSGSGTDFTLTINSLETEDAATYYCHQSSSLPLTFGGGTKVEIKR |  | binds
